Like-named read-outs stand apart in the source and are kept apart here.
B1: 12C9F1B5 (antibody, V domains shown)
VH: QIQLVQSGPELKKPGETVKISCKASGFTNYGMNWVKQAPGKGLKWMGWINPYSGVPTYADDFKGRFAFSLETSASTAYLQINNLKNEDTATYFCARDDGFHYTMDYWGQGTSVTVSS
VL: DVVLTQTPLSLPVSLGDQASISCRSSQNLVHSNGITYLHWYLQKPGQSPKLLIYKVSNRFSGVPDRFSGSGSGTDFTLTISRVEAEDLGVYFCSQSTLVPWTFGGGTKLEIK
B2: 47C7E3 (antibody, V domains shown)
VH: QIQLVQSGPELKKPGETVKISCKASGYTFTNFGMNWVKQAPGKGLKWMGWIYTPSGVPIYADDFKGRFAVSLETSASTAYLQINNLKNEDTATYFCARDDGYYYTMDYWGQGTSVTVSS
VL: DDVMTQTPLSLPVSLGDHASISCRSSQSLVHSNGDTYLHWYLQKPGQSPKLLIYKVSNRFSGVPDRFSGSGSGTDFTLKISRVEAEDLGVYFCSQSTHVPWTFGGGTKLEIK
B3: 43H11G12 (antibody, V domains shown)
VH: QIQLVQSGPELKKPGETVKISCKASGYNFRDFGMNWVKQAPGKGLKWMGWLNSYSGVPTYADDFKGRFVLSLETSASTAYLQINNLINEDTATYFCGRDDGYNYTMNYWGQGTSVTVSS
VL: DVVMTQAPLSLPVSLGDQASISCRSSQSLVHSNGITYLHWYLQRAGQSPQLLIYKVSNRFSGVPDRFSGSGSGTDFTLKISRVEAEDLGVYFCSQSTHVPWTFGGGTKLEIK
B4: 37F11A10 (antibody, V domains shown)
VH: QIQLVQSGPELKKPGETVKISCKASGDTFRNYGMNWVKQAPGKGLKWMGWINPYSGVPTYADDFKGRFAFSLETSASTAFLQINNLKNEDTATYFCARDDGFHYTMDYWGLGTSVTVSS
VL: DVVMTQTPLSLPVSLGDQASISCRSSQSLLHSNGITYLHWYLQKPGQSPKLLTYKVSHRFSGVPDRFSGSGSGTDFTLKISRVEAEDLGVYFCSQSTHVPWTFGGGTKLEIR
B5: 34A9C12 (antibody, V domains shown)
VH: QIQLVQSGPELKKSGETVKISCKASGFTNYGINWVKQAPGKGLKWMGWINPYSGVPTYADDFKGRFAFSLETSASTAYLQINNLKNEDSATYFCARDDGFHYTMDYWGQGTSVTVSS
VL: DVVLIQTPLSLPVSLGDQASISCRSSQNLVHSNGITYLHWYLQKPGQSPKLLIYKVSNRFSGVPDRFSGSGSGTDFTLKISRVEAEDLGVYFCSQSTLVPWTFGGGTKLEIK
B6: 38F11B2 (antibody, V domains shown)
VH: QIQLVQSGPELKKPGETVKISCKASGYTFIDYGMNWVKQAPGKGLKWMGWINIYSGVPTYADDFKGRFAFSLETSANTAYLQINNLKNEDTATYFCARDDGYHYTMNYWGQGTSVTVSS
VL: DIVMTQTPLSLPVSLGDQASISCRSSQSLVHSNGITYLHWYLQKSGQSPKLLIYKVSNRFSGVPDRFSGSGSGTAFTLKISRVEAEDLGVYFCSQSTHVPWTFGGGTKLEIK
B7: 37D11F5B8 (antibody, V domains shown)
VH: QIQLVQSGPELKKPGETVKISCKASGDTFRNNGMNWVKQAPGKGLKWMGWINPYSGVPTYADDFKGRFAFSLETSASTAFLQINNLKNEDTATYFCARDDGYHYTMDFWGLGTSVTVSS
VL: DVVMTQTPLSLPVSLGDQASISCRSSQSLVHSNGITYLHWYLQKPGQSPKLLTYKVSHRFSGVPDRFSGSGSGTDFTLKISRVEAEDLGVYFCSQSTHVPWTFGGGTKLEIK
B8: 38D6A4 (antibody, V domains shown)
VH: QIQLVQSGPELKKPGEAVKISCKASGSTFTDFGMNWVRQAPGKGLKWMGWINPYSGVPTYADEFKGRFVFSLETSARVAYMQINDLKNEDTATYFCARDDGYHYTMDYWGQGTSVTVSS
VL: DVVMTQTPLPLPVSLGDQASISCRSSQSLIHSNGITYLHWYLQKPGQSPKLLIYKVSNRFSGVPDRFTGSGSGTDFTLKISRVEAEDLGVYFCSQSTHVPWTFGGGSKLEIR
B9: 47F3F10B4-VH1-VL4(IgG1m) (antibody)
heavy: QVQLVQSGAEVKKPGASVKVSCKASGYTFTDHYMHWVRQAPGQGLEWMGYIFPNNGVSGYNQNFKDRVTMTRDTSISTAYMELSRLRSDDTAVYYCARRQLGLGTMDYWGQGTLVTVSSASTKGPSVFPLAPSSKSTSGGTAALGCLVKDYFPEPVTVSWNSGALTSGVHTFPAVLQSSGLYSLSSVVTVPSSSLGTQTYICNVNHKPSNTKVDKRVEPKSCDKTHTCPPCPAPELVGGPSVFLLPPKPKDTLMISRTPEVTCVVVDVSHEDPEVKFNWYVDGVEVHNAKTKPPEEQYNSTLRVVSVLTVLHQDWLNGKEYKCKVSNKALPAPIEKTISKAKGQPREPQVYTLPPSREEMTKNQVSLTCLVKGFYPSDIAVEWESNGQPENNYKTTPLVLDSDGSFFLYSKLTVDKSRWQQGNVFSCSVMHEALHNHYTQKSLSLSPGK
light: DIQMTQSPSSLSASVGDRVTITCRASKSVSTSGYNYMHWYQQKPGKAPKLLIYLASNLESGVPSRFSGSGSGTDFTLTISSLQPEDFATYYCQHSKELPWTFGQGTKVEIKRTVAAPSVFIFPPSDEQLKSGTASVVCLLNNFYPREAKVQWKVDNALQSGNSQESVTEQDSKDSTYSLSSTLTLSKADYEKHKVYACEVTHQGLSSPVTKSFNRGEC
B10: 47F3F10B4-VH2-VL4 (antibody, human IgG1, kappa, V domains shown)
VH: QVQLVQSGAEVKKPGASVKVSCKASGYTFTDHYMHWVRQAPGQGLEWMGYIFPNNGVSGYNQNFKDRVTMTRDTSTSTVYMELSSLRSEDTAVYYCARRQLGLGTMDYWGQGTLVTVSS
VL: DIQMTQSPSSLSASVGDRVTITCRASKSVSTSGYNYMHWYQQKPGKAPKLLIYLASNLESGVPSRFSGSGSGTDFTLTISSLQPEDFATYYCQHSKELPWTFGQGTKVEIKR
B11: 31H11B1 (antibody, V domains shown)
VH: QVQLQQPGAELGKPGTSVKLSCKASGYTFTSYWMHWVKQRPGQGLEWIGHINPNSGSTNQNAKFKNKATLTVDESSSTAYMQLSTLTSEDSAVYYCTRSGSNYRRNYFDYWGQGTTLTVSS
VL: DIQMTQSSSYLSVSLGGRVTITCKASDHINNWLAWYQQKPGNAPRLLISGATSLETGVPSRFSGSGSGKDYTLSITSLQTEDVATYYCQQYWSTPLTFGAGTKLELK
B12: 47F3F10B4 (antibody, V domains shown)
VH: EVQLQQSGPELVKPGASVKMSCKASGYTFTDHYMHWVKQSHGKSLEWIGYIFPNNGVSGYNQNFKDKATLTVDKSSSTAYMDLRSLTPEDSAVYYCTRRQLGLGTMDYWGQGTSVTVSS
VL: DIVLTQSPASLAVSLGQRATISCRASKSVSTSGYNYMHWYQQKPGQPPKLLIYLASNLESGVPARFSGSGSGTDFTLNIHPVEEEDAATYYCQHSKELPWTFGGGTKLEIK
B13: 12C9F1B5-VH4-VL2 (antibody, human IgG1, kappa, V domains shown)
VH: QVQLVQSGAEVKKPGASVKVSCKASGFTNYGMNWVRQAPGQRLEWMGWINPYSGVPTYADDFKGRVTITRDTSASTAYMELSSLRSEDTAVYYCARDDGFHYTMDYWGQGTLVTVSS
VL: DIVMTQSPLSLPVTPGEPASISCRSSQNLVHSNGITYLHWYLQKPGQSPQLLIYKVSNRFSGVPDRFSGSGSGTDFTLKISRVEAEDVGVYYCSQSTLVPWTFGQGTKVEIKR
B14: 12C9F1B5-VH2.1-VL2 (antibody, human IgG1, kappa, V domains shown)
VH: QVQLVQSGAEVKKPGASVKVSCKASGFTNYGMNWVRQAPGQGLEWMGWINPYSGVPTYADDFKGRVTMTRDTSISTAYMELSRLRSDDTAVYYCARDDGFHYTMDYWGQGTLVTVSS
VL: DIVMTQSPLSLPVTPGEPASISCRSSQNLVHSNGITYLHWYLQKPGQSPQLLIYKVSNRFSGVPDRFSGSGSGTDFTLKISRVEAEDVGVYYCSQSTLVPWTFGQGTKVEIKR
B15: 43H11G12-VH4-VL2 (antibody, human IgG1, kappa, V domains shown)
VH: QVQLVQSGAEVKKPGASVKVSCKASGYNFRDFGMNWVRQAPGQRLEWMGWLNSYSGVPTYADDFKGRVTITRDTSASTAYMELSSLRSEDTAVYYCARDDGYNYTMNYWGQGTLVTVSS
VL: DIVMTQSPLSLPVTPGEPASISCRSSQSLVHSNGITYLHWYLQKPGQSPQLLIYKVSNRFSGVPDRFSGSGSGTDFTLKISRVEAEDVGVYYCSQSTHVPWTFGQGTKVEIKR

What was measured:
human B7-H3 (human) [1] = molecular target: human B7-H3 (human) (UniProt Q5ZPR3); experiment: flow cytometry (FACS) on CHO-K1 cells expressing human B7-H3; goat anti-human IgG (H+L) secondary
Chain of UniProt Q5ZPR3 (Q5ZPR3 29-534): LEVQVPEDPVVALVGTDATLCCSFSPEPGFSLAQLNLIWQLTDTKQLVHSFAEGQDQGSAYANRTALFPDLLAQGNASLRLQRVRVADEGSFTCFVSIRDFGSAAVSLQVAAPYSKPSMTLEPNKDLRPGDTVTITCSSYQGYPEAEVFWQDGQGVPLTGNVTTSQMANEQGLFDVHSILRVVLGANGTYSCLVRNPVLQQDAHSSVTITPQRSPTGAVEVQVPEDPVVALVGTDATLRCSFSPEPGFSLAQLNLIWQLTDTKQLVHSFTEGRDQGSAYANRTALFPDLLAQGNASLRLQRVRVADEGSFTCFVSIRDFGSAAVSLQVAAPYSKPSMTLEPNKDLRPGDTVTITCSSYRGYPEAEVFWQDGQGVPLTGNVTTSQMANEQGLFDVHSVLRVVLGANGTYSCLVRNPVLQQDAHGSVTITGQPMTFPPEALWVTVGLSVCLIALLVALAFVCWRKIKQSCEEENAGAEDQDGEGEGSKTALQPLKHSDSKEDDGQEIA

human B7-H3 (human) [2] = molecular target: human B7-H3 (human) (UniProt Q5ZPR3); experiment: cell-based or functional assay
human B7-H3 (human) [3] = molecular target: human B7-H3 (human) (UniProt Q5ZPR3); experiment: flow cytometry (FACS) on CHO-K1/B7-H3 cells
human B7-H3 (human) [4] = molecular target: human B7-H3 (human) (UniProt Q5ZPR3); experiment: cell-based or functional assay; remark: listed apart in the source

Row | Molecule | EC50 (human B7-H3 (human) [1]) [nM] | EC50 (human B7-H3 (human) [3]) [nM] | other results
1 | MGA271-hIgG1 (antibody) | 81.6 | – | –
2 | DS-5573a (antibody) | – | – | CDC % Relative activity (EC50 of positive control DS-5573a / EC50 of sample) (human B7-H3 (human) [2]): 100%; CDC % Relative activity (EC50 of positive control DS-5573a / EC50 of sample), plate 01 (human B7-H3 (human) [2]): 100%; CDC % Relative activity (EC50 of positive control DS-5573a / EC50 of sample), plate 02 (human B7-H3 (human) [2]): 100%; CDC EC50 (% target cell lysis, Cell Titer-Glo) (human B7-H3 (human) [2]): 0.69 µg/mL; CDC EC50 (% target cell lysis, Cell Titer-Glo), plate 01 (human B7-H3 (human) [2]): 0.595 µg/mL; CDC EC50 (% target cell lysis, Cell Titer-Glo), plate 02 (human B7-H3 (human) [2]): 0.628 µg/mL
3 | MGA271 (Enoblituzumab) (antibody) | 102 | 20.8 | ADCC % Relative activity (EC50 of positive control MGA-271 / EC50 of sample), plate 01 (human B7-H3 (human) [2]): 100%; ADCC % Relative activity (EC50 of positive control MGA-271 / EC50 of sample), plate 02 (human B7-H3 (human) [2]): 100%; ADCC EC50 (% target cell lysis, LDH; NK92/CD16a-VV effector cells), plate 01 (human B7-H3 (human) [2]): 0.0394 µg/mL; ADCC EC50 (% target cell lysis, LDH; NK92/CD16a-VV effector cells), plate 02 (human B7-H3 (human) [2]): 0.0443 µg/mL
4 | B1 | – | 4.76 | –
5 | B2 | – | 0.87 | –
6 | B3 | – | 6.38 | –
7 | B4 | – | 1.38 | –
8 | B5 | – | 0.822 | –
9 | B6 | – | 0.651 | –
10 | B7 | – | 0.909 | –
11 | B8 | – | 1.78 | –
12 | B9 | 0.299 | – | CDC % Relative activity (EC50 of positive control DS-5573a / EC50 of sample), plate 02 (human B7-H3 (human) [4]): 445%; CDC EC50 (% target cell lysis, Cell Titer-Glo), plate 02 (human B7-H3 (human) [4]): 0.141 µg/mL
13 | B10 | 0.767 | – | –
14 | B11 | – | 0.977 | –
15 | B12 | – | 0.751 | –
16 | B13 | 0.339 | – | CDC % Relative activity (EC50 of positive control DS-5573a / EC50 of sample), plate 01 (human B7-H3 (human) [4]): 155%; CDC EC50 (% target cell lysis, Cell Titer-Glo), plate 01 (human B7-H3 (human) [4]): 0.384 µg/mL
17 | B14 | 0.153 | – | –
18 | B15 | 0.155 | – | CDC % Relative activity (EC50 of positive control DS-5573a / EC50 of sample), plate 01 (human B7-H3 (human) [4]): 104%; CDC EC50 (% target cell lysis, Cell Titer-Glo), plate 01 (human B7-H3 (human) [4]): 0.57 µg/mL
